Measured values taken from US20230146665A1 (Xencor, published 2023).

Target: T1, IL18BP (human, UniProt O95998 31-194)
T1 construct: also called ILBP antigen
T1 sequence (looked up): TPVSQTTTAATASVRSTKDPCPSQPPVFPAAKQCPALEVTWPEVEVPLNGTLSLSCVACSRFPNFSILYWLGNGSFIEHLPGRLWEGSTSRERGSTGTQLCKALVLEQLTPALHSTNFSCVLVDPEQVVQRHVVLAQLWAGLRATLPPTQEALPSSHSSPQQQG
Experiment: Octet (BLI), IL18BP as ligand on the biosensor, IL18 fusion as analyte
Description: Binding of variant IL18 to IL18 receptors or IL18BP were investigated using Octet, a BioLayer Interferometry (BLI)-based method. Experimental steps for Octet generally include the following: Immobilization (capture of ligand to a biosensor); Association (dipping of ligand-coated biosensors into wells containing serial dilutions of the analyte); and Dissociation (returning of biosensors to well containing buffer) in order to determine the affinity of the test articles. A reference well containing buffer alone was also included in the method for background correction during data processing. In particular, ligands used were IL18R1, IL18R1xIL18RAP heterodimer, or IL18BP, and the analytes were IL18 fusions. Illustrative sequences for these antigens are depicted in FIGS. 1-3 (respectively for human, mouse, and cynomolgus monkey).

B1: XENP40253 (Fc fusion)
chain: YFGKLESKLSVIRNLNDQVLFIDQGNRPLFEDMTDSDSRDNAPRTIFIISMYDDSQPRGMAVTISVKSEKISTLSSENKIISFKEMNPPDNIKDTKSDIIFFQRSVPGHDNKMQFESSSYEGYFLASEKERDLFKLILKKEDELGDRSIMFTVQNEDEPKSSDKTHTCPPCPAPPVAGPSVFLFPPKPKDTLMISRTPEVTCVVVDVKHEDPEVKFNWYVDGVEVHNAKTKPREEEYNSTYRVVSVLTVLHQDWLNGKEYKCKVSNKALPAPIEKTISKAKGQPREPQVYTLPPSREEMTKNQVSLTCDVSGFYPSDIAVEWESDGQPENNYKTTPPVLDSDGSFFLYSKLTVDKSRWEQGDVFSCSVMHEALHNHYTQKSLSLSPG
heavy: QVQLQESGPGLVRPSQTLSLTCTVSGFSLTGYGVNWVRQPPGRGLEWIGMIWGDGNTDYNSALKSRVTMLKDTSKNQFSLRLSSVTAADTAVYYCARERDYRLDYWGQGSLVTVSSASTKGPSVFPLAPSSKSTSGGTAALGCLVKDYFPEPVTVSWNSGALTSGVHTFPAVLQSSGLYSLSSVVTVPSSSLGTQTYICNVNHKPSNTKVDKKVEPKSCDKTHTCPPCPAPPVAGPSVFLFPPKPKDTLMISRTPEVTCVVVDVKHEDPEVKFNWYVDGVEVHNAKTKPREEQYNSTYRVVSVLTVLHQDWLNGKEYKCKVSNKALPAPIEKTISKAKGQPREPQVYTLPPSREQMTKNQVKLTCLVKGFYPSDIAVEWESNGQPENNYKTTPPVLDSDGSFFLYSKLTVDKSRWQQGNVFSCSVMHEALHNRFTQKSLSLSPG
light: DIQMTQSPSSLSASVGDRVTITCRASGNIHNYLAWYQQKPGKAPKLLIYYTTTLADGVPSRFSGSGSGTDYTFTISSLQPEDIATYYCQHFWSTPRTFGQGTKVEIKRTVAAPSVFIFPPSDEQLKSGTASVVCLLNNFYPREAKVQWKVDNALQSGNSQESVTEQDSKDSTYSLSSTLTLSKADYEKHKVYACEVTHQGLSSPVTKSFNRGEC
notes: also called K53D single substitution variant; K53D
binding result: no binding
